# Experimental data published in publication PMC13478228 (2026).
# What was measured:
# [1] = molecular target: T1, human cytosolic seryl-tRNA synthetase (SerRS), tag-free, purified separately (human, UniProt P49591 1-514); test: 2000 uM NAD+
# [2] = molecular target: T1, human cytosolic seryl-tRNA synthetase …; test: 80 uM ADPR
# [3] = molecular target: T1, human cytosolic seryl-tRNA synthetase …; test: 2000 uM ADPR
binder,measurement,setting,value
"human sirtuin 2 (SIRT2), C-terminal His tag (enzyme) MAEPDPSHPLETQAGKVQEAQDSDSDSEGGAAGGEADMDFLRNLFSQTLSLGSQKERLLDELTLEGVARYMQSERCRRVICLVGAGISTSAGIPDFRSPSTGLYDNLEKYHLPYPEAIFEISYFKKHPEPFFALAKELYPGQFKPTICHYFMRLLKDKGLLLRCYTQNIDTLERIAGLEQEDLVEAHGTFYTSHCVSASCRHEYPLSWMKEKIFSEVTPKCEDCQSLVKPDIVFFGESLPARFFSCMQSDFLKVDLLLVMGTSLQVQPFASLISKAPLSTPRLLINKEKAGQSDPFLGMIMGLGGGMDFDSKKAYRDVAWLGECDQGCLALAELLGWKKELEDLVRREHASIDAQSGAGVPNPSTSASPKKSPPPAKDEARTTEREKPQ",Kd,[1],530 nM
same,Kd,[2],530 nM
same,Kd,[3],430 nM
